Reference: article PMC6824681, “Phosphoproteomics reveals that the hVPS34 regulated SGK3 kinase specifically phosphorylates endosomal proteins including Syntaxin-7, Syntaxin-12, RFIP4 and WDR44” (Biochemical Journal, 2019)

B1: Syntaxin 6 (STX6) (natural protein, human (endogenous in HEK293), UniProt O43752 1-255, looked up)
chain: MSMEDPFFVVKGEVQKAVNTAQGLFQRWTELLQDPSTATREEIDWTTNELRNNLRSIEWDLEDLDETISIVEANPRKFNLDATELSIRKAFITSTRQVVRDMKDQMSTSSVQALAERKNRQALLGDSGSQNWSTGTTDKYGRLDRELQRANSHFIEEQQAQQQLIVEQQDEQLELVSGSIGVLKNMSQRIGGELEEQAVMLEDFSHELESTQSRLDNVMKKLAKVSHMTSDRRQWCAIAILFAVLLVVLILFLVL
notes: Syntaxin-6 (STX6), endogenous in HEK293 cells, detected by immunoblot with anti-STX6; source: endogenous, HEK293 lysate
B2: VTI1A (natural protein, human (endogenous in HEK293), UniProt Q96AJ9 1-217, looked up)
chain: MSSDFEGYEQDFAVLTAEITSKIARVPRLPPDEKKQMVANVEKQLEEAKELLEQMDLEVREIPPQSRGMYSNRMRSYKQEMGKLETDFKRSRIAYSDEVRNELLGDDGNSSENQRAHLLDNTERLERSSRRLEAGYQIAVETEQIGQEMLENLSHDREKIQRARERLRETDANLGKSSRILTGMLRRIIQNRILLVILGIIVVITILMAITFSVRRH
notes: Vti1a (VTI1A), endogenous in HEK293 cells, detected by immunoblot with anti-VTI1A; source: endogenous, HEK293 lysate
B3: VAMP4 (natural protein, human (endogenous in HEK293), UniProt O75379 1-141, looked up)
chain: MPPKFKRHLNDDDVTGSVKSERRNLLEDDSDEEEDFFLRGPSGPRFGPRNDKIKHVQNQVDEVIDVMQENITKVIERGERLDELQDKSESLSDNATAFSNRSKQLRRQMWWRGCKIKAIMALVAAILLLVIIILIVMKYRT
notes: VAMP4, endogenous in HEK293 cells, detected by immunoblot with anti-VAMP4; also called v-SNARE protein VAMP4; source: endogenous, HEK293 lysate

Molecular target: T1, GFP-STX12 wild type (Syntaxin-12) (human, UniProt Q86Y82 1-276)
T1 construct: Syntaxin-12 (STX12), human; After IGF1 stimulation about 20% of the stably expressed protein was phosphorylated (Ser139) by phos-tag analysis; also called GFP-STX12 WT; wild-type STX12
T1 sequence (looked up): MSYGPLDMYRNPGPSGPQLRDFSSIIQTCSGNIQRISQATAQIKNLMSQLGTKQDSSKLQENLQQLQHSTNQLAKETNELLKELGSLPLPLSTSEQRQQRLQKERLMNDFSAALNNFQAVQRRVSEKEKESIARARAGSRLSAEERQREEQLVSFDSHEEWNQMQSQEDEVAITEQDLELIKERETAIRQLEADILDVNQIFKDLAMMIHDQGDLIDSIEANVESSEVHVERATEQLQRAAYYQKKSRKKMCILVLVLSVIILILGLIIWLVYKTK
Test: co-IP; GFP-STX12 WT or S139A immunoprecipitated from 2 mg lysate with GFP-Trap beads, 4°C, 4 h; two washes with lysis buffer with 0.45 M NaCl, one with 0.15 M NaCl; immunoblot of endogenous partners; cells serum-starved overnight, ± 14H (1 µM, 1 h), ± IGF1 (50 ng/ml, 15 min)
Conditions: partners not purified

| Binder | fold increase of the amount co-immunoprecipitated, IGF1-stimulated against unstimulated cells [fold] |
| --- | --- |
| B1 | ~2 |
| B2 | ~2 |
| B3 | ~2 |
